# ± gives the standard error.
# B1: library; numbered along this chain (parent)
# chain: MATDAALRRLLRLHRTEIAVAVDSAFPLLHALADHDVVPEDKFQETLHLKEKEGCPQAFHALLSWLLTQDSTAILDFWRVLFKDYNLERYGRLQPILDSFPKDVDLSQPRKGRKPPAVPKALVPPPRLPTKRKASEEARAAAPAALTPRGTASPGSQLKAKPPKKPESSAEQQRLPLGNGIQTMSASVQRAVAMSSGDVPGARGAVEGILIQQVFESGGSKKCIQVGGEFYTPSKFEDSGSGKNKARSSSGPKPLVRAKGAQGAAPGGGEARLGQQGSVPAPLALPSDPQLHQKNEDECAVCRDGGELICCDGCPRAFHLACLSPPLREIPSGTWRCSSCLQATVQEVQPRAEEPRPQEPPVETPLPPGLRSAGEEVRGPPGEPLAGMDTTLVYKHLPAPPSAAPLPGLDSSALHPLLCVGPEGQQNLAPGARCGVCGDGTDVLRCTHCAAAFHWRCHFPAGTSRPGTGLRCRSCSGDVTPAPVEGVLAPSPARLAPGPAKDDTASHEPALHRDDLESLLSEHTFDGILQWAIQSMARPAAPFPS
# Variants of: B1
# Experiment: AIRE transcriptional activation functional score (insulin promoter-GFP; nonsense median 0, synonymous median 1) (normalised score); higher = higher AIRE activity (more reporter activation)
# Conditions: with insulin promoter-GFP reporter in HEK293
# Procedure, shortened: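 The functional score compares variant enrichment between select and non-select populations after subtracting wild type. To obtain it, codon-optimized AIRE NNN-codon libraries spanning three regions were placed by Bxb1 recombinase into Flp-In T-REx HEK293 landing-pad cells with an insulin core promoter-GFP reporter. Cells with the top 10% GFP and unselected integrants were tile-sequenced after mCherry+, BFP− integrants had been sorted at day 7 and grown 7 more days. Only variants with 10 counts per million in non-select were kept, rescaled to nonsense median 0 and synonymous median 1, and averaged across biological replicates.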
row,Variant,AIRE transcriptional activation functional score
1,V479Q,1.24 ± 0.31
2,V479S,0.925 ± 0.28
3,P481H,1.14 ± 0.073
4,P481C,0.688 ± 0.32
5,P481Q,0.501 ± 0.69
6,P481K,1.02 ± 0.054
7,P481D,1.21 ± 0.15
8,P481L,0.8 ± 0.19
9,P481I,0.238 ± 0.19
10,P481E,0.44 ± 0.17
11,P481R,0.956 ± 0.17
12,P481M,1.29 ± 0.04
13,P481W,1.39 ± 0.17
14,P481S,0.91 ± 0.43
15,P481G,0.747 ± 0.45
16,P481F,1.16 ± 0.26
17,P481N,0.00715 ± 0.27
18,P481Y,1.37 ± 0.058
19,P481V,1.38 ± 0.086
20,P481A,0.586 ± 0.34
21,P481T,0.704 ± 0.14
22,L488N,0.961 ± 0.29
23,L488S,0.854 ± 0.22
24,L488H,0.298 ± 0.17

row,Variant,AIRE transcriptional activation functional score
1,L488T,1.18 ± 0.22
2,L488R,0.722 ± 0.19
3,L488W,1.32 ± 0.047
4,L488Y,1.31 ± 0.13
5,L488G,1.03 ± 0.27
6,L488D,0.449 ± 0.34
7,L488C,0.742 ± 0.29
8,L488A,1.27 ± 0.25
9,L488P,1.04 ± 0.17
10,L488Q,0.827 ± 0.24
11,L488K,1.07 ± 0.24
12,L488I,0.826 ± 0.27
13,L488M,0.976 ± 0.11
14,L488F,1.13 ± 0.078
15,L488V,1.09 ± 0.29
16,L488E,0.182 ± 0.21
17,P490A,0.812 ± 0.14
18,E485H,0.537 ± 0.11
19,E485R,0.652 ± 0.17
20,E485F,1.1 ± 0.035
21,E485M,-0.286 ± 0.13
22,E485Y,0.948 ± 0.18
23,E485G,1.05 ± 0.11
24,E485T,1.02 ± 0.18

row,Variant,AIRE transcriptional activation functional score
1,E485S,0.955 ± 0.21
2,E485Q,0.397 ± 0.44
3,E485P,1.25 ± 0.21
4,E485I,1.1 ± 0.23
5,E485L,1.11 ± 0.13
6,E485A,0.466 ± 0.38
7,E485W,1.08 ± 0.049
8,E485V,0.951 ± 0.26
9,E485C,1.24 ± 0.047
10,E485N,0.645 ± 0.4
11,E485D,0.981 ± 0.16
12,E485K,0.777 ± 0.1
13,G486R,0.926 ± 0.16
14,G486A,0.707 ± 0.48
15,G486W,1.49 ± 0.017
16,G486S,1.16 ± 0.21
17,G486I,1.37 ± 0.12
18,G486Y,0.737 ± 0.24
19,G486D,0.692 ± 0.16
20,G486C,0.625 ± 0.26
21,G486V,1.45 ± 0.5
22,G486N,0.995 ± 0.084
23,G486T,0.154 ± 0.23
24,G486E,0.566 ± 0.18

row,Variant,AIRE transcriptional activation functional score
1,G486H,1.27 ± 0.27
2,G486F,1.46 ± 0.11
3,G486Q,0.85 ± 0.15
4,G486P,1 ± 0.4
5,G486K,0.91 ± 0.17
6,G486L,1.03 ± 0.4
7,R473H,-0.49 ± 0.25
8,R473L,1.29 ± 0.21
9,R473K,0.66 ± 0.16
10,R473C,0.937 ± 0.055
11,R473T,1.06 ± 0.22
12,R473I,0.852 ± 0.71
13,R473F,0.997 ± 0.18
14,R473P,0.607 ± 0.32
15,R473Q,0.968 ± 0.13
16,R473G,0.848 ± 0.2
17,R473S,0.755 ± 0.1
18,R473M,0.947 ± 0.08
19,R473E,1.16 ± 0.2
20,R473V,0.334 ± 0.23
21,R473N,0.99 ± 0.077
22,R473A,0.794 ± 0.38
23,R473Y,1.64 ± 0.16
24,R473D,0.836 ± 0.06

row,Variant,AIRE transcriptional activation functional score
1,R473W,0.97 ± 0.13
2,S476D,0.455 ± 0.12
3,S476L,0.829 ± 0.29
4,S476E,0.948 ± 0.19
5,S476R,0.828 ± 0.26
6,S476F,1.21 ± 0.13
7,S476T,1.2 ± 0.2
8,S476Y,1.19 ± 0.18
9,S476I,1.23 ± 0.15
10,S476C,0.608 ± 0.23
11,S476G,0.844 ± 0.26
12,S476W,1.09 ± 0.037
13,S476K,0.603 ± 0.21
14,S476V,0.878 ± 0.21
15,S476H,0.529 ± 0.051
16,S476P,1.02 ± 0.29
17,S476A,0.905 ± 0.28
18,S476M,0.943 ± 0.047
19,S476Q,0.151 ± 0.11
20,P483M,1.36 ± 0.045
21,P483F,1.33 ± 0.075
22,P483N,0.937 ± 0.11
23,P483G,1.89 ± 0.095
24,P483I,1.6 ± 0.16

row,Variant,AIRE transcriptional activation functional score
1,P483L,0.603 ± 0.34
2,P483V,1.03 ± 0.074
3,P483K,0.675 ± 0.19
4,P483Q,0.926 ± 0.086
5,P483S,0.811 ± 0.27
6,P483H,1.13 ± 0.088
7,P483R,1.03 ± 0.24
8,P483T,1.46 ± 0.12
9,P483A,0.722 ± 0.33
10,P483C,1.44 ± 0.08
11,G477P,1.46 ± 0.14
12,G477S,0.661 ± 0.27
13,G477T,-0.261 ± 0.17
14,G477C,0.926 ± 0.17
15,G477Y,0.642 ± 0.12
16,G477N,1.12 ± 0.16
17,G477A,0.739 ± 0.25
18,G477Q,0.0223 ± 0.072
19,G477R,0.787 ± 0.29
20,G477V,1.13 ± 0.3
21,G477M,1.01 ± 0.059
22,G477L,0.273 ± 0.39
23,G477I,1.01 ± 0.33
24,G477F,1.36 ± 0.11

row,Variant,AIRE transcriptional activation functional score
1,G477E,0.302 ± 0.23
2,G477D,0.678 ± 0.17
3,G477W,0.745 ± 0.15
4,G477K,1.11 ± 0.11
5,G477H,1.41 ± 0.098
6,A489P,1.01 ± 0.25
7,A489C,1.19 ± 0.1
8,A489D,1.17 ± 0.2
9,A489V,0.959 ± 0.15
10,A489F,1.16 ± 0.26
11,A489G,0.932 ± 0.37
12,A489T,1.44 ± 0.15
13,A489H,1.18 ± 0.099
14,A489M,1.23 ± 0.08
15,A489S,0.687 ± 0.46
16,A489W,0.893 ± 0.068
17,A489Q,0.0401 ± 0.2
18,A489L,1.06 ± 0.14
19,A489R,0.51 ± 0.42
20,A489E,0.655 ± 0.041
21,A489K,0.705 ± 0.14
22,A489Y,1.22 ± 0.2
23,A489I,0.859 ± 0.35

# Source: the supplement of paper PMC12667976
